Measurements from US20200317776A1 (published 2020).
Where two headings read alike, the source gives them in different places.

What was measured:
[1] = biological target: T1, human TREM2/DAP12 fusion protein (human, UniProt O43914 41-113, limits assumed); assay: cell-based or functional assay
[2] = biological target: T2, human TREM2 expressed on cells (human, UniProt Q9NZC2 19-230); assay: FACS, hTREM2 BW cells
T2 construct: BW5147.G.1.4 cells stably expressing human TREM2 together with Dap12, or endogenous TREM2 of primary human myeloid cells; also called huT2 BW; hTREM2 expressing cell line
T2 sequence: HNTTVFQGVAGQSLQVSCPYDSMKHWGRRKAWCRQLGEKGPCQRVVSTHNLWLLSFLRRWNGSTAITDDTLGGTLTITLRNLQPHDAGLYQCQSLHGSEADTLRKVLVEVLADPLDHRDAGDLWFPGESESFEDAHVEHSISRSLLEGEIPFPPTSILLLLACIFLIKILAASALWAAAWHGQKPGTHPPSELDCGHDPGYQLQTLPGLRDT
How it was run: (§1)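 Cells were BW5147.G.1.4 stably expressing human TREM2 with Dap12, or human monocyte-derived dendritic cells differentiated 6 days with GM-CSF and IL-4. Antibodies bound 1 h on ice in PBS+2% FBS, then PE anti-human secondary 30 min on ice; flow cytometry read-out as mean fluorescence intensity.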

[3] = biological target: T2, human TREM2 expressed on cells; assay: FACS, hTREM2 BW cells; remark: listed apart in the source
[4] = biological target: T3, cynomolgus monkey TREM2 Fc fusion (entire TREM2 ECD; only one Fc arm fused to TREM2) (cynomolgus monkey, UniProt Q9NZC2 19-174 (human entry)); assay: BLI, Fab, monovalent
T3 construct: also called cyno TREM2-Fc
T3 chain: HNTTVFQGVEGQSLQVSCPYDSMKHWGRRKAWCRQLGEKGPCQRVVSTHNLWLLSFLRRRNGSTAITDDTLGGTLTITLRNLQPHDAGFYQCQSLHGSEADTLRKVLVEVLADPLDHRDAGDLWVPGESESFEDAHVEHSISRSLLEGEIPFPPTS

[5] = biological target: T1, human TREM2/DAP12 fusion protein; assay: cell-based or functional assay; remark: listed apart in the source
[6] = biological target: T2, human TREM2 expressed on cells; assay: cell-based or functional assay
[7] = biological target: T4, human TREM2 Fc fusion (entire TREM2 ECD; only one Fc arm fused to TREM2) (human, UniProt Q9NZC2 19-174); assay: BLI, IgG, avid
T4 construct: also called huTREM2-Fc; recombinant hTREM2
T4 sequence: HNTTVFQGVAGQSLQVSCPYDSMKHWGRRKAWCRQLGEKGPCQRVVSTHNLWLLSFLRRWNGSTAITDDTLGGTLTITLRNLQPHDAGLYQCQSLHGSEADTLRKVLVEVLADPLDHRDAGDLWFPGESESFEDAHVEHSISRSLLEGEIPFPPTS
How it was run: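 Avid format: AHQ-loaded IgGs exposed to 100 nM human or cyno TREM2-Fc antigen, 3 min association, 3 min dissociation in buffer. Monovalent format: human TREM2-Fc loaded on AHQ sensors, exposed to 100 nM Fab. Kinetics fit to 1:1 model, run at 25° C.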

[8] = biological target: T1, human TREM2/DAP12 fusion protein; assay: cell-based or functional assay; remark: listed apart in the source
[9] = biological target: T1, human TREM2/DAP12 fusion protein; assay: cell-based or functional assay; remark: listed apart in the source
[10] = biological target: T2, human TREM2 expressed on cells; assay: FACS, hTREM2 expressing cell line
[11] = biological target: T4, human TREM2 Fc fusion (entire TREM2 …); assay: BLI
[12] = biological target: T1, human TREM2/DAP12 fusion protein; assay: cell-based or functional assay; remark: listed apart in the source
[13] = biological target: T2, human TREM2 expressed on cells; assay: cell-based or functional assay; remark: listed apart in the source
[14] = biological target: T2, human TREM2 expressed on cells; assay: FACS, human DCs
How it was run: as §1

[15] = biological target: T4, human TREM2 Fc fusion (entire TREM2 …); assay: BLI, Fab, monovalent

Binder	luciferase activation, soluble IgG, EC50 [1] [nM]	Kd [2] [nM]	Kd [3] [nM]	Kd [4] [nM]	Luciferase activation plate bound 33 nM IgG, FOC [5] [FOC]	Luciferase activation soluble 10 nM IgG, FOC [5] [FOC]	Survival huDCs plate bound IgG, AUC [6] [AUC]	Kd [7] [nM]	luciferase activation, soluble IgG, EC50 [8] [nM]	Reporter assay soluble IgG (EC50, nM) [9] [nM]	Kd [10] [nM]	luciferase activation, plate bound IgG, EC50 [8] [nM]	Reporter assay plate bound IgG (EC50, nM) [9] [nM]	fold improvement in affinity (KD) vs AL2p [11] [fold]	BW Luc assay plate bound 7.3 nM IgG, FOC [12] [FOC]	BW Luc assay soluble 7.3 nM IgG, FOC [12] [FOC]	DC viability (AUC) [13] [AUC]	Mac viability (AUC) [13] [AUC]	MFI [14] [MFI]	Kd [15] [nM]
AL2p-3 (antibody, V domains shown, AL2p-h50 variant; Fab and IgG formats under one id) VH: QVQLVQSGAEVKKPGSSVKVSCKASGYAFSSSWMNWVRQAPGQGLEWMGRIYPGEGDTNYAQKFQGRVTITADESTSTAYMELSSLRSEDTAVYYCARLLRNQPGESYAMDYWGQGTLVTVSS VL: DVVMTQTPLSLSVTPGQPASISCRSSQSLVHSNGYTYLHWYLQKPGQSPQLLIYKVSNRFSGVPDRFSGSGSGTDFTLKISRVEAEDVGVYYCSQSTRVPYTFGQGTKLEIK	50	2.3	2.3	4580	6.03	1.29	363000	1.19	–	–	–	–	–	–	–	–	–	–	–	–
AL2p (parental mouse anti-TREM2 antibody) (antibody, V domains shown, Parental mouse antibody; Fab and IgG formats under one id; also called 9F5; 9F5a) VH: QVQLQQSGPELVKPGASLKISCKASGYAFSSSWMNWVKQRPGKGLEWIGRIYPGDGDTNYNGEFRVRATLTADTSSTTAYMQLSSLTSEDSAVYFCARLLRNQPGESYAMDYWGQGASVTVSS VL: DVVMTQTPLSLPVSLGDQASISCRSSQSLVHSNGYTYLHWYLQKPGQSPKLLIYKVSNRFSGVPDRFSGSGSGTDFTLKISRVEADDLGVYFCSQSTRVPYTFGGGTKLEIK	–	–	–	–	–	–	–	–	19.3	19	3.04	–	–	–	–	–	–	–	–	–
AL2p-47 (antibody, V domains shown, Fab and IgG formats under one id (explicit huIgG1 is m97); also called AL2-47) VH: QVQLVQSGAEVKKPGSSVKVSCKASGYAFSSDWMNWVRQAPGQGLEWMGRIYPGEGDTNYARKFHGRVTITADESTSTAYMELSSLRSEDTAVYYCARLLRNKPGESYAMDYWGQGTLVTVSS VL: DVVMTQTPLSLSVTPGQPASISCRTSQSLVHSNAYTYLHWYLQKPGQSPQLLIYKVSNRVSGVPDRFSGSGSGTDFTLKISRVEAEDVGVYYCSQSTRVPYTFGQGTKLEIK	–	1.09	–	16.3	–	–	–	–	104	105	1.22	206	206	~10	3.54	3.48	771000	22100	372	14.8
AL2p-58 (antibody, V domains shown, Fab and IgG formats under one id (explicit huIgG1 is m95, PSEG is m96)) VH: QVQLVQSGAEVKKPGASVKVSCKASGYAFSSQWMNWVRQAPGQRLEWIGRIYPGGGDTNYAGKFQGRVTITADTSASTAYMELSSLRSEDTAVYYCARLLRNQPGESYAMDYWGQGTLVTVSS VL: DVVMTQSPDSLAVSLGERATINCRSSQSLVHSNRYTYLHWYQQKPGQSPKLLIYKVSNRFSGVPDRFSGSGSGTDFTLKISRVEAEDVGVYYCSQSTRVPYTFGQGTKLEIK	–	0.51	–	12.4	–	–	–	–	14	14	0.51	36	36.1	~10	–	–	–	–	–	13.3
AL2p-62 (antibody, V domains shown, Fab and IgG formats under one id) VH: QVQLVQSGAEVKKPGASVKVSCKASGYAFSSQWMNWVRQAPGQRLEWIGRIYPGEGDTNYAGKFQGRVTITADTSASTAYMELSSLRSEDTAVYYCARLLRNQPGESYAMDYWGQGTLVTVSS VL: DVVMTQSPDSLAVSLGERATINCRSSQSLVHSNQYTYLHWYQQKPGQSPKLLIYKVSNRFSGVPDRFSGSGSGTDFTLTISSLQAEDVAVYYCSQSTRVPYTFGGGTKVEIK	25.1	–	2.63	19.4	–	–	–	–	–	–	–	–	–	–	–	–	–	–	–	21.1
AL2p-31 (antibody, V domains shown, Fab and IgG formats under one id) VH: QVQLVQSGAEVKKPGSSVKVSCKASGYAFSSQWMNWVRQAPGQGLEWMGRIYPGGGDTNYARKFQGRVTITADESTSTAYMELSSLRSEDTAVYYCARLLRNQPGESYAMDYWGQGTLVTVSS VL: GVVMTQTPLSLSVTPGQPASISCRSSQSLVHSNGYTYLHWYLQKPGQSPQLLIYKVSNRRSGVPDRFSGSGSGTDFTLKISRVEAEDVGVYYCSQSTRVPYTFGQGTKLEIK	6.92	1	1.23	3.44	28.2	2.83	1.21e+06	0.317	1.14	11.4	0.56	10.1	10.1	–	7.49	4.48	860000	83700	288	4.03
AL2p-6 (antibody, V domains shown, AL2p-h50 variant; Fab and IgG formats under one id) VH: QVQLVQSGAEVKKPGSSVKVSCKASGYAFSSSWMNWVRQAPGQGLEWMGRIYPGDGDTNYAQKFQGRVTITADESTSTAYMELSSLRSEDTAVYYCARLLRNQPGESYAMDYWGQGTLVTVSS VL: DVVMTQTPLSLSVTPGQPASISCRSSQSLVHSNWYTYLHWYLQKPGQSPQLLIYKVSNRFSGVPDRFSGSGSGTDFTLKISRVEAEDVGVYYCSQSTRVPYTFGQGTKLEIK	38.6	4.2	4.2	1150	5.39	1.2	547000	1.06	–	–	–	–	–	–	–	–	–	–	–	259
AL2p-5 (antibody, V domains shown, AL2p-h50 variant; Fab and IgG formats under one id; also called AL2-5) VH: QVQLVQSGAEVKKPGSSVKVSCKASGYAFSSSWMNWVRQAPGQGLEWMGRIYPGDGDTNYAQKFQGRVTITADESTSTAYMELSSLRSEDTAVYYCARLLRNQPGESYAMDYWGQGTLVTVSS VL: DVVMTQTPLSLSVTPGQPASISCRSSQSLVHSNRYTYLHWYLQKPGQSPQLLIYKVSNRFSGVPDRFSGSGSGTDFTLKISRVEAEDVGVYYCSQSTRVPYTFGQGTKLEIK	38.1	2	2	4630	9.99	1.27	710000	–	–	–	–	–	–	–	–	–	–	–	–	99.2
